Our source for the IC50 of pseudovirus neutralization (luciferase activity) values is patent publication US20240067706A1.

Substrate in this assay: S proteins of SARS-CoV-2 and mutant strains thereof on pseudoviruses
The assay can be described thus: cell-based or functional assay.

B1: fully human monoclonal antibody 76E1 (antibody, V domains shown)
VH: EVQLVESGGGVVQPGGSLRLSCEASGFSFKDYGMHWIRQTPGKGLEWISRISGDTRGTSYVDSVKGRFIVSRDNSRNSLFLQMNSLRSEDTALYYCAALVIVAAGDDFDLWGQGTVVTVSS
VL: QSALTQPLSVSGSPGQSVTISCTGSSSDIGSYNFVSWYRQYPGKAPKVMIYEVNKRPSGVPVRFSGSKSGNTASLTVSGLQHEDEADYYCCSYGGRNNLIFGGGTKLTVL
For B1, the IC50 of pseudovirus neutralization (luciferase activity) was found to be 397 ng/mL.
